Source: paper PMC3605678 (The Journal of Biological Chemistry, 2013)
No end group written: not given here.

T1: MBP fusion of MKK5(PB1-D) (construct E, 16–130) (human, UniProt Q13163 16-130)
T1 sequence: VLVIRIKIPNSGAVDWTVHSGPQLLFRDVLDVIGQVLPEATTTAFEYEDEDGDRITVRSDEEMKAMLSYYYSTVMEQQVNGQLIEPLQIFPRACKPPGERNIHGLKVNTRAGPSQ

B1: MBP fusion of MKK5 construct B (113–448) (domain or fragment, human, UniProt Q13163 113-448, looked up)
chain: GERNIHGLKVNTRAGPSQHSSPAVSDSLPSNSLKKSSAELKKILANGQMNEQDIRYRDTLGHGNGGTVYKAYHVPSGKILAVKVILLDITLELQKQIMSELEILYKCDSSYIIGFYGAFFVENRISICTEFMDGGSLDVYRKMPEHVLGRIAVAVVKGLTYLWSLKILHRDVKPSNMLVNTRGQVKLCDFGVSTQLVNSIAKTYVGTNAYMAPERISGEQYGIHSDVWSLGISFMELALGRFPYPQIQKNQGSLMPLQLLQCIVDEDSPVLPVGEFSEPFVHFITQCMRKQPKERPAPEELMGHPFIVQFNDGNAAVVSMWVCRALEERRSQQGPP
B2: ERK5 MAPK construct containing the N-terminal region of ERK5-(1–431) (domain or fragment)
chain: MAEPLKEEDGEDGSAEPPGPVKAEPAHTAASVAAKNLALLKARSFDVTFDVGDEYEIIETIGNGAYGVVSSARRRLTGQQVAIKKIPNAFDVVTNAKRTLRELKILKHFKHDNIIAIKDILRPTVPYGEFKSVYVVLDLMESDLHQIIHSSQPLTLEHVRYFLYQLLRGLKYMHSAQVIHRDLKPSNLLVNENCELKIGDFGMARGLCTSPAEHQYFMTEYVATRWYRAPELMLSLHEYTQAIDLWSVGCIFGEMLARRQLFPGKNYVHQLQLIMMVLGTPSPAVIQAVGAERVRAYIQSLPPRQPVPWETVYPGADRQALSLLGRMLRFEPSARISAAAALRHPFLAKYHDPDDEPDCAPPFDFAFDREALTRERIKEAIVAEIEDFHARREGIRQQIRFQPSLQPVASEPGCPDVEMPSPWAPSGDCAM
B3: pepMEF2 (labeled MEF2A D-motif peptide) (peptide)
peptide: tetramethylrhodamin-SRKPDLRVVIPPS
B4: GST-MEKK3(PB1) (MEKK3 PB1 domain, residues 42–126) (domain or fragment)
chain: QSDVRIKFEHNGERRIIAFSRPVKYEDVEHKVTTVFGQPLDLHYMNNELSILLKNQDDLDKAIDILDRSSSMKSLRILLLSQDRN
B5: pepMKK5 (peptide with the linear D-motif of MKK5) (peptide)
peptide: ASKPPGERNIHGLKVNTRA

What was measured:
[1] = target: B2; experiment: pull-down
[2] = target: Full-length MKK5 (MKK5_FL) (human, UniProt Q13163 1-448); experiment: fluorescence polarisation
[3] = target: B2; experiment: fluorescence polarisation
[4] = target: T1, MBP fusion of MKK5(PB1-D) (construct E, …); experiment: pull-down
ERK2 = ERK2 (human, UniProt P28482 1-360); experiment: fluorescence polarisation
Sequence of ERK2 (P28482 whole entry): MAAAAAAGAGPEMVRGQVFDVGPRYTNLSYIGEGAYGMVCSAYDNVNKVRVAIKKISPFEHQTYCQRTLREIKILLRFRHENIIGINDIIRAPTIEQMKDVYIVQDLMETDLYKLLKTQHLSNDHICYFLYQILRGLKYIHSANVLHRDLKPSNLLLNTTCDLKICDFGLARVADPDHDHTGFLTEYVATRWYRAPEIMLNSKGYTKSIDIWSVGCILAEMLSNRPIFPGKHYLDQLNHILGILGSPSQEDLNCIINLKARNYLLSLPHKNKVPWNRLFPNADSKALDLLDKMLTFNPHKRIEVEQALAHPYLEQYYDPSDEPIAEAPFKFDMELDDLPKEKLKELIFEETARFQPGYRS

[5] = target: B2; experiment: fluorescence polarisation; remark: listed apart in the source

B1: binds [1].

B2 gave a Kd [2] of under 0.1 µM.

B3: binds [3].

B4: binds [4].

For B5, the Kd (ERK2) was over 100 µM and the Kd [5] was 4.2 µM.
